In the test the target is GST-BLM fusion protein (human), P54132. Kind of test: pull-down. Conditions: remark: other sources report otherwise.
GST-BLM fusion protein (human), P54132, sequence (P54132 whole entry, the tested form may be a part): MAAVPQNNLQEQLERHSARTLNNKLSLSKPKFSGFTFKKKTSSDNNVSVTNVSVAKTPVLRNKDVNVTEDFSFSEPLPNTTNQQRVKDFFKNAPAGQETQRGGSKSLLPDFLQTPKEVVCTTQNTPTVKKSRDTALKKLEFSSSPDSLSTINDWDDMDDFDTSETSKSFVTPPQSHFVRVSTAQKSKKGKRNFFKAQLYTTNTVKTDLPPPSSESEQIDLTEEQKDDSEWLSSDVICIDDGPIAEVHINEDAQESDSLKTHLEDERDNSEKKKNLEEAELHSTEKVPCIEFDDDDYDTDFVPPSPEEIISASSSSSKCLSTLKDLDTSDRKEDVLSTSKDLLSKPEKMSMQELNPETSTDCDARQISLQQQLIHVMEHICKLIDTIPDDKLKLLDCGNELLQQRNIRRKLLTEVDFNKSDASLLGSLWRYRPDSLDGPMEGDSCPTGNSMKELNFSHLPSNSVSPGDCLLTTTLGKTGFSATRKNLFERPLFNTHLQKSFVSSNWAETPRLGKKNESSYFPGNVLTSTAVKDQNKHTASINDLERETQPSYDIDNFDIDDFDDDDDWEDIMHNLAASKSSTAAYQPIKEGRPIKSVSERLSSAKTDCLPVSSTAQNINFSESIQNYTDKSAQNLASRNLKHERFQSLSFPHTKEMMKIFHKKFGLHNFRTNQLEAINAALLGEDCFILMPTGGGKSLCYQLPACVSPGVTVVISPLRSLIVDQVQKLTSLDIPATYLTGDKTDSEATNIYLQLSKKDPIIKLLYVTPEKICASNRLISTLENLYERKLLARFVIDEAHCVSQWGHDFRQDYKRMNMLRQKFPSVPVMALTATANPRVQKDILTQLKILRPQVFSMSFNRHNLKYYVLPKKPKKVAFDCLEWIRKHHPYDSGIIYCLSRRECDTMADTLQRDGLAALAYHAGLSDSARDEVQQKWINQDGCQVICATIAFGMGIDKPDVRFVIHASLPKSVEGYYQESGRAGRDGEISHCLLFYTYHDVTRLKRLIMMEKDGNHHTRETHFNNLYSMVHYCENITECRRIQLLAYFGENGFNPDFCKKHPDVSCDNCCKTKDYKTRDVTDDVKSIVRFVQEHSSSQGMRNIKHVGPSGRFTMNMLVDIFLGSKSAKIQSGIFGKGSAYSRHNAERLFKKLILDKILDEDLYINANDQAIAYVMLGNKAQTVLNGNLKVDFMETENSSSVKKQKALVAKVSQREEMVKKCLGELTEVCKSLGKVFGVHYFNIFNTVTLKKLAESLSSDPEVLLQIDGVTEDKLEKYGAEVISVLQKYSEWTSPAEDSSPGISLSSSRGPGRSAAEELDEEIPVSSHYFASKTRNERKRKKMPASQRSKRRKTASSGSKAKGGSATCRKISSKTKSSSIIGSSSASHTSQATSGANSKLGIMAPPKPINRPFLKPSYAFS

B1: hRAD51, Q06609 1-339 (natural protein)
chain: MAMQMQLEANADTSVEEESFGPQPISRLEQCGINANDVKKLEEAGFHTVEAVAYAPKKELINIKGISEAKADKILAEAAKLVPMGFTTATEFHQRRSEIIQITTGSKELDKLLQGGIETGSITEMFGEFRTGKTQICHTLAVTCQLPIDRGGGEGKAMYIDTEGTFRPERLLAVAERYGLSGSDVLDNVAYARAFNTDHQTQLLYQASAMMVESRYALLIVDSATALYRTDYSGRGELSARQMHLARFLRMLLRLADEFGVAVVITNQVVAQVDGAAMFAADPKKPIGGNIIAHASTTRLYLRKGRGETRICKIYDSPCLPEAEAMFAINADGVGDAKD
B1 had a percent of the hRAD51 in the lysate retained of 30 to 40%.

The values are drawn from paper PMC2169463.
